Laboratory results reported in paper PMC11266248, “Production, purification, and quality assessment of borrelial proteins CspZ from Borrelia burgdorferi and FhbA from Borrelia hermsii” (Applied Microbiology and Biotechnology, 2024).

Biological target: T1, purified human complement factor H from human plasma/serum (human, UniProt P08603 19-1231)
T1 construct: human complement factor H, serum glycoprotein of 20 SCR domains (NCBI gene number 3075); also called FH; Human purified FH; source: bought: Sigma/Merck C5813 (batch SLCP3577), purified from human plasma; provided by Prof; Clark
T1 sequence (P08603 19-1231): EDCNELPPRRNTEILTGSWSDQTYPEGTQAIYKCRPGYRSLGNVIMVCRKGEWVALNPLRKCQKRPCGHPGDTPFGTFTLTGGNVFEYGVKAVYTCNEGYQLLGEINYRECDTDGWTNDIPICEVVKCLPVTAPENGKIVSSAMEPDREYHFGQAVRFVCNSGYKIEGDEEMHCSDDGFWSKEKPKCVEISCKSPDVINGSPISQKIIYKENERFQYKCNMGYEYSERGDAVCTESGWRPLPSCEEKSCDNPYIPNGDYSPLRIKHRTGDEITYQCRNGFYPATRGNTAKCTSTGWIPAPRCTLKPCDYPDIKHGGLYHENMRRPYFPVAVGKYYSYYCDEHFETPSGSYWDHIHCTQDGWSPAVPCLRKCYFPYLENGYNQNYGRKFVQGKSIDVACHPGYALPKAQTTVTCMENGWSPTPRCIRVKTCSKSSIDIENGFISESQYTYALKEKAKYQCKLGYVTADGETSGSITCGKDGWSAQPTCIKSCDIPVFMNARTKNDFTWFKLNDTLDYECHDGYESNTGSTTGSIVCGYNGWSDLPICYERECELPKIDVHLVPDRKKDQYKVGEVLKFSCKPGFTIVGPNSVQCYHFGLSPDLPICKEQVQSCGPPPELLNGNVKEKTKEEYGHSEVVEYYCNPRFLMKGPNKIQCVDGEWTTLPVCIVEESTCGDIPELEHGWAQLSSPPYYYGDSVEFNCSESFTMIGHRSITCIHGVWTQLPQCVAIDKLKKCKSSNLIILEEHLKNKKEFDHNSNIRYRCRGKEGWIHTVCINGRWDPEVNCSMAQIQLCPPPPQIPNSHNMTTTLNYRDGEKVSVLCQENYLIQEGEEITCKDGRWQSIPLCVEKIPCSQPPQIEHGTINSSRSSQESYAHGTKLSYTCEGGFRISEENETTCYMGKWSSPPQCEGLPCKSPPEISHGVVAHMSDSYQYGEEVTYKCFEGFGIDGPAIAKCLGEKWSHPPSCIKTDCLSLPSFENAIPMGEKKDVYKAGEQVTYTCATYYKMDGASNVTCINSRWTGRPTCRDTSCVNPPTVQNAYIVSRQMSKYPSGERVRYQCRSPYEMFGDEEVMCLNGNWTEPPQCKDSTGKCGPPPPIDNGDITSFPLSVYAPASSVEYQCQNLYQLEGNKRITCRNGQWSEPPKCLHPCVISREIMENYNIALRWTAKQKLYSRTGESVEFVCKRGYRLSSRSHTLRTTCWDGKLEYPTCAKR
Assay: SPR; Biacore T100, CM5 chip; FH (750 RU), rFHL-1 or rFH15-20 (200 RU) amine-coupled as ligands; CspZ or FhbA as analytes; PBS with 0.05% Tween20, 25 °C, 30 µl/min; single-cycle and multiple-cycle kinetics, Langmuir 1:1 model; in duplicate
Conditions: both partners purified

B1: CspZ from Borrelia burgdorferi sensu stricto (complement regulator-acquiring surface protein 2) (natural protein)
chain: DVSRLNQRNINELKIFVEKAKYYSIKLDAIYNECTGAYNDIMTYSEGTFSDQSKVNQAISIFKKDNKIVNKFKELEKIIEEYKPMFLSKLIDDFAIELDQAVDNDVSNARHVADSYKKLRKSVVLAYIESFDVISSKFVDSKFVEASKKFVNKAKEFVEENDLIALECIVKTIGDMVNDREINSRSRYNNFYKKEADFLGAAVELEGAYKAIKQTLL
notes: CspZ (BbCRASP-2/BBH06), surface lipoprotein of Borrelia burgdorferi sensu stricto (NCBI txid139), encoded by cspZ on lp28-3; theoretical mass of the tagged protein 27.5 kDa, measured mass fits the predicted value without the N-terminal methionine; Two plasmids coding for N-terminally His6-tagged CspZ are named (pET-45(+) from Prof. Marconi, pETM-11 from Dr. Brangulis); also called BbCRASP-2; …
Kd: 0.209 ± 0.141 nM
koff: 5.31e-05 s⁻¹
kon: 255000 M⁻¹ s⁻¹
